Assay results reported in paper PMC3575847 (Nucleic Acids Research, 2012).

Target: T1, Upf1-FL produced in E. coli (Upf1-FLc; amino acids 1–1118) (human, UniProt Q92900-2 1-1118)
T1 sequence (looked up): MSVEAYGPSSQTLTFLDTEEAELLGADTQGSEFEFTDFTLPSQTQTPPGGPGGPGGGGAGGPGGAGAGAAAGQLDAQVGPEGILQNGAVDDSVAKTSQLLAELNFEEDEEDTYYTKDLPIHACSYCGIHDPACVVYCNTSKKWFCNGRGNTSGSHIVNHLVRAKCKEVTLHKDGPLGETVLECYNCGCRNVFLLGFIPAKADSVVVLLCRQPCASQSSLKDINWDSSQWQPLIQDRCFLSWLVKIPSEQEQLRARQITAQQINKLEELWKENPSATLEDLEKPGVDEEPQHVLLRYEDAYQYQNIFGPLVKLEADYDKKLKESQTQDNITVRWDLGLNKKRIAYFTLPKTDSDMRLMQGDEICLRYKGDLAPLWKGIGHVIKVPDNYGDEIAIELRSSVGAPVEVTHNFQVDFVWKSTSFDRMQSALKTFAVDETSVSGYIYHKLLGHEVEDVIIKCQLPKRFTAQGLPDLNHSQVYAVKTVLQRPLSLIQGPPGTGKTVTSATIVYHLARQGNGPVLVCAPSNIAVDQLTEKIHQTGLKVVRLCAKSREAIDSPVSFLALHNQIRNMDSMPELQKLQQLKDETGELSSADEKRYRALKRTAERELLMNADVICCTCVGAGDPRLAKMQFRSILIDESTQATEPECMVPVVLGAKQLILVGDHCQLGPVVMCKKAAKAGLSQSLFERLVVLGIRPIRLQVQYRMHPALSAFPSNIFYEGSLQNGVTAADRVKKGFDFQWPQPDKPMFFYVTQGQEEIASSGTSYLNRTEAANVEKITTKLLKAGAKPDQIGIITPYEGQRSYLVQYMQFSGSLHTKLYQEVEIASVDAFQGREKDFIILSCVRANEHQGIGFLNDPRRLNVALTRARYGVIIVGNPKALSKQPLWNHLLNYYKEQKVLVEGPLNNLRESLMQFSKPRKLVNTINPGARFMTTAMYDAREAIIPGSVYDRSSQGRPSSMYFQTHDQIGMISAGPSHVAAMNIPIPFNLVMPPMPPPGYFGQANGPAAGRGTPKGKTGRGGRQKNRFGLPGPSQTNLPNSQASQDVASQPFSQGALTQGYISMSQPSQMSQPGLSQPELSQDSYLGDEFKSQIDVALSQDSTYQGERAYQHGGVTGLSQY
Experiment: pull-down

binding result: binds
B1: CBP-tagged Upf2 (761–1227) (domain or fragment, UniProt Q9HAU5 761-1227, looked up)
chain: EKTVKKKRPPLQEYVRKLLYKDLSKVTTEKVLRQMRKLPWQDQEVKDYVICCMINIWNVKYNSIHCVANLLAGLVLYQEDVGIHVVDGVLEDIRLGMEVNQPKFNQRRISSAKFLGELYNYRMVESAVIFRTLYSFTSFGVNPDGSPSSLDPPEHLFRIRLVCTILDTCGQYFDRGSSKRKLDCFLVYFQRYVWWKKSLEVWTKDHPFPIDIDYMISDTLELLRPKIKLCNSLEESIRQVQDLEREFLIKLGLVNDKDSKDSMTEGENLEEDEEEEEGGAETEEQSGNESEVNEPEEEEGSDNDDDEGEEEEEENTDYLTDSNKENETDEENTEVMIKGGGLKHVPCVEDEDFIQALDKMMLENLQQRSGESVKVHQLDVAIPLHLKSQLRKGPPLGGGEGEAESADTMPFVMLTRKGNKQQFKILNVPMSSQLAANHWNQQQAEQEERMRMKKLTLDINERQEQED
